In patent US20060241051A1 (Takeda / Millennium, published 2006):
Numbered stars: 1 amine (or outer) side, 2 acyl side, 3 side chain; on linkers, the order of the positions; unused ones are H or OH. Square brackets hold non-standard residues; d marks the D form. Ends that are not written are not given here. * marks the point of attachment. Ala(2-Qui) = 2-quinolylalanine, O=C([C@H](Cc1ccc2ccccc2n1)N[*:1])[*:2]; Arg(Me) = CNC(=N)NCCC[C@H](N)C(=O)O; Fmoc = O=C(OCC1c2ccccc2-c2ccccc21)*; azaGly = NNC(=O)O

B1: Compound No. 205: [D-Tyr1,Thr3,Arg(Me)9]MS10 (peptide)
peptide: [dY]NTNSFGL[Arg(Me)]F-NH2
modifications: N-terminus assumed
SMILES: CNC(=N)NCCC[C@H](NC(=O)[C@H](CC(C)C)NC(=O)CNC(=O)[C@H](Cc1ccccc1)NC(=O)[C@H](CO)NC(=O)[C@H](CC(N)=O)NC(=O)[C@@H](NC(=O)[C@H](CC(N)=O)NC(=O)[C@H](N)Cc1ccc(O)cc1)[C@@H](C)O)C(=O)N[C@@H](Cc1ccccc1)C(N)=O
B2: Compound No. 229: [D-Tyr1,Val3,Arg(Me)9]MS10 (peptide)
peptide: [dY]NVNSFGL[Arg(Me)]F-NH2
modifications: N-terminus assumed
SMILES: CNC(=N)NCCC[C@H](NC(=O)[C@H](CC(C)C)NC(=O)CNC(=O)[C@H](Cc1ccccc1)NC(=O)[C@H](CO)NC(=O)[C@H](CC(N)=O)NC(=O)[C@@H](NC(=O)[C@H](CC(N)=O)NC(=O)[C@H](N)Cc1ccc(O)cc1)C(C)C)C(=O)N[C@@H](Cc1ccccc1)C(N)=O
B3: Compound No. 235: [D-Tyr1,Ala3,AzaGly7,Arg(Me)9]MS10 (peptide)
peptide: [dY]NANSF[azaGly]L[Arg(Me)]F-NH2
modifications: N-terminus assumed
SMILES: CNC(=N)NCCC[C@H](NC(=O)[C@H](CC(C)C)NC(=O)NNC(=O)[C@H](Cc1ccccc1)NC(=O)[C@H](CO)NC(=O)[C@H](CC(N)=O)NC(=O)[C@H](C)NC(=O)[C@H](CC(N)=O)NC(=O)[C@H](N)Cc1ccc(O)cc1)C(=O)N[C@@H](Cc1ccccc1)C(N)=O
B4: Compound No. 206: [D-Tyr1,Ile3,Arg(Me)9]MS10 (peptide)
peptide: [dY]NINSFGL[Arg(Me)]F-NH2
modifications: N-terminus assumed
SMILES: CC[C@H](C)[C@H](NC(=O)[C@H](CC(N)=O)NC(=O)[C@H](N)Cc1ccc(O)cc1)C(=O)N[C@@H](CC(N)=O)C(=O)N[C@@H](CO)C(=O)N[C@@H](Cc1ccccc1)C(=O)NCC(=O)N[C@@H](CC(C)C)C(=O)N[C@@H](CCCNC(=N)NC)C(=O)N[C@@H](Cc1ccccc1)C(N)=O
B5: Compound No. 210: [D-Tyr1,Ala4,Arg(Me)9]MS10 (peptide)
peptide: [dY]NWASFGL[Arg(Me)]F-NH2
modifications: N-terminus assumed
SMILES: CNC(=N)NCCC[C@H](NC(=O)[C@H](CC(C)C)NC(=O)CNC(=O)[C@H](Cc1ccccc1)NC(=O)[C@H](CO)NC(=O)[C@H](C)NC(=O)[C@H](Cc1c[nH]c2ccccc12)NC(=O)[C@H](CC(N)=O)NC(=O)[C@H](N)Cc1ccc(O)cc1)C(=O)N[C@@H](Cc1ccccc1)C(N)=O
B6: Compound No. 212: [D-Tyr1,Ala5,Arg(Me)9]MS10 (peptide)
peptide: [dY]NWNAFGL[Arg(Me)]F-NH2
modifications: N-terminus assumed
SMILES: CNC(=N)NCCC[C@H](NC(=O)[C@H](CC(C)C)NC(=O)CNC(=O)[C@H](Cc1ccccc1)NC(=O)[C@H](C)NC(=O)[C@H](CC(N)=O)NC(=O)[C@H](Cc1c[nH]c2ccccc12)NC(=O)[C@H](CC(N)=O)NC(=O)[C@H](N)Cc1ccc(O)cc1)C(=O)N[C@@H](Cc1ccccc1)C(N)=O
B7: Compound No. 211: [D-Tyr1,Thr5,Arg(Me)9]MS10 (peptide)
peptide: [dY]NWNTFGL[Arg(Me)]F-NH2
modifications: N-terminus assumed
SMILES: CNC(=N)NCCC[C@H](NC(=O)[C@H](CC(C)C)NC(=O)CNC(=O)[C@H](Cc1ccccc1)NC(=O)[C@@H](NC(=O)[C@H](CC(N)=O)NC(=O)[C@H](Cc1c[nH]c2ccccc12)NC(=O)[C@H](CC(N)=O)NC(=O)[C@H](N)Cc1ccc(O)cc1)[C@@H](C)O)C(=O)N[C@@H](Cc1ccccc1)C(N)=O
B8: Compound No. 214: [D-Tyr1,Gln2,Arg(Me)9]MS10 (peptide)
peptide: [dY]QWNSFGL[Arg(Me)]F-NH2
modifications: N-terminus assumed
SMILES: CNC(=N)NCCC[C@H](NC(=O)[C@H](CC(C)C)NC(=O)CNC(=O)[C@H](Cc1ccccc1)NC(=O)[C@H](CO)NC(=O)[C@H](CC(N)=O)NC(=O)[C@H](Cc1c[nH]c2ccccc12)NC(=O)[C@H](CCC(N)=O)NC(=O)[C@H](N)Cc1ccc(O)cc1)C(=O)N[C@@H](Cc1ccccc1)C(N)=O
B9: Compound No. 215: [D-Tyr1,Thr2,Arg(Me)9]MS10 (peptide)
peptide: [dY]TWNSFGL[Arg(Me)]F-NH2
modifications: N-terminus assumed
SMILES: CNC(=N)NCCC[C@H](NC(=O)[C@H](CC(C)C)NC(=O)CNC(=O)[C@H](Cc1ccccc1)NC(=O)[C@H](CO)NC(=O)[C@H](CC(N)=O)NC(=O)[C@H](Cc1c[nH]c2ccccc12)NC(=O)[C@@H](NC(=O)[C@H](N)Cc1ccc(O)cc1)[C@@H](C)O)C(=O)N[C@@H](Cc1ccccc1)C(N)=O
B10: Compound No. 233: [D-Tyr1,Ile3,AzaGly7,Arg(Me)9]MS10 (peptide)
peptide: [dY]NINSF[azaGly]L[Arg(Me)]F-NH2
modifications: N-terminus assumed
SMILES: CC[C@H](C)[C@H](NC(=O)[C@H](CC(N)=O)NC(=O)[C@H](N)Cc1ccc(O)cc1)C(=O)N[C@@H](CC(N)=O)C(=O)N[C@@H](CO)C(=O)N[C@@H](Cc1ccccc1)C(=O)NNC(=O)N[C@@H](CC(C)C)C(=O)N[C@@H](CCCNC(=N)NC)C(=O)N[C@@H](Cc1ccccc1)C(N)=O
B11: Compound No. 234: [D-Tyr1,Val3,AzaGly7,Arg(Me)9]MS10 (peptide)
peptide: [dY]NVNSF[azaGly]L[Arg(Me)]F-NH2
modifications: N-terminus assumed
SMILES: CNC(=N)NCCC[C@H](NC(=O)[C@H](CC(C)C)NC(=O)NNC(=O)[C@H](Cc1ccccc1)NC(=O)[C@H](CO)NC(=O)[C@H](CC(N)=O)NC(=O)[C@@H](NC(=O)[C@H](CC(N)=O)NC(=O)[C@H](N)Cc1ccc(O)cc1)C(C)C)C(=O)N[C@@H](Cc1ccccc1)C(N)=O
B12: Compound No. 203: [D-Tyr1,Cha6,Arg(Me)9]MS10 (peptide)
peptide: YNWNSXGLRF
modifications: D-Tyr1; Cha6; Arg(Me)9; C-terminal amide
notes: printed structure is the same as that of Compound No. 172
B13: Compound No. 201: [Ala(2-Qui)10]MS10 (peptide)
peptide: YNWNSFGLR[Ala(2-Qui)]-NH2
modifications: N-terminus assumed
SMILES: CC(C)C[C@H](NC(=O)CNC(=O)[C@H](Cc1ccccc1)NC(=O)[C@H](CO)NC(=O)[C@H](CC(N)=O)NC(=O)[C@H](Cc1c[nH]c2ccccc12)NC(=O)[C@H](CC(N)=O)NC(=O)[C@@H](N)Cc1ccc(O)cc1)C(=O)N[C@@H](CCCNC(=N)N)C(=O)N[C@@H](Cc1ccc2ccccc2n1)C(N)=O
B14: Compound No. 224: des(1)-[D-Tyr2,D-Trp3,Arg(Me)9]MS10 (peptide)
peptide: [dY][dW]NSFGL[Arg(Me)]F-NH2
modifications: N-terminus assumed
SMILES: CNC(=N)NCCC[C@H](NC(=O)[C@H](CC(C)C)NC(=O)CNC(=O)[C@H](Cc1ccccc1)NC(=O)[C@H](CO)NC(=O)[C@H](CC(N)=O)NC(=O)[C@@H](Cc1c[nH]c2ccccc12)NC(=O)[C@H](N)Cc1ccc(O)cc1)C(=O)N[C@@H](Cc1ccccc1)C(N)=O
B15: Compound No. 1: Metastin (peptide)
peptide: GTSLSPPPESSGSRQQPGLSAPHSRQIPAPQGAVLVQREKDLPNYNWNSFGLRF

The binders below were run against T1, human OT7T175 (metastin receptor) (human, UniProt Q969F8 1-398) (assay: FMAT competition with Cy-5-labeled metastin (40-54), hOT7T175-expressed CHO cells).
T1 construct: expressed on CHO cells (hOT7T175-expressed CHO cells; hOT7T175/CHO); also called hOT7T175; h0T7T175
T1 sequence (Q969F8 whole entry L364H): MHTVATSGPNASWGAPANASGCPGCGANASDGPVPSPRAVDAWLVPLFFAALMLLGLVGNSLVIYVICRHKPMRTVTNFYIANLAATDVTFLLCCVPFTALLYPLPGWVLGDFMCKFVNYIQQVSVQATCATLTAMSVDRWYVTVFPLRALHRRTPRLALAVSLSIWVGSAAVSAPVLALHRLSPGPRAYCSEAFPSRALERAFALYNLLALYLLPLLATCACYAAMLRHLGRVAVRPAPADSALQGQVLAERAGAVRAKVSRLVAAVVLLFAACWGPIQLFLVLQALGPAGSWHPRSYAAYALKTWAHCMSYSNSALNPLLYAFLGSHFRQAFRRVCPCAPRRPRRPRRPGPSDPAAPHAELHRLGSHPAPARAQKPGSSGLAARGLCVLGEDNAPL

Row | Binder | IC50 [nM]
1 | [dY]WNSFGL[Arg(Me)]F-NH2 [Compound No. 217: des(1)-[D-Tyr2,Arg(Me)9]MS10] | 250
2 | [dY]TNSF[azaGly]L[Arg(Me)]F-NH2 [Compound No. 241: des(1)-[D-Tyr2,Thr3,AzaGly7,Arg(Me)9]MS10] | 56
3 | [dN]WNSFGL[Arg(Me)]F-NH2 [Compound No. 216: des(1)-[D-Asn2,Arg(Me)9]MS10] | 700
4 | [dY]INSFGL[Arg(Me)]F-NH2 [Compound No. 228: des(1)-[D-Tyr2,Ile3,Arg(Me)9]MS10] | 40
5 | B1 | 260
6 | B2 | 130
7 | B3 | 100
8 | [dY]NWNSFGV[Arg(Me)]F-NH2 [Compound No. 213: [D-Tyr1,Val8,Arg(Me)9]MS10] | 190
9 | [dY]NWTSFGL[Arg(Me)]F-NH2 [Compound No. 208: [D-Tyr1,Thr4,Arg(Me)9]MS10] | 830
10 | B4 | 85
11 | B5 | 730
12 | B6 | 36
13 | B7 | 44
14 | B8 | 390
15 | B9 | 250
16 | B10 | 23
17 | B11 | 47
18 | B12 | 37
19 | [dY]WNSF[azaGly]L[Arg(Me)]F-NH2 [Compound No. 222: des(1)-[D-Tyr2,AzaGly7,Arg(Me)9]MS10] | 33
20 | B13 | 820
21 | [dY]NWNSF[azaGly]LR(Me)F-NH2 [Compound No. 232: [D-Tyr1,AzaGly7,Arg(Me)9]MS10] | 49
22 | [dY][dN]WNSF[azaGly]LR(Me)F-NH2 [Compound No. 237: [D-Tyr1,D-Asn2,AZaGly7,Arg(Me)9]MS10] | 27
23 | B14 | 140

What follows are binders tested against T1, human OT7T175 (metastin receptor) (assay: cell-based or functional assay).

Row | Binder | intracellular Ca ion level-increasing activity (FLIPR)
24 | [dY]WNSFGL[Arg(Me)]F-NH2 [Compound No. 217: des(1)-[D-Tyr2,Arg(Me)9]MS10] | 20 specific activity to metastin (1-54)
25 | [dY]TNSF[azaGly]L[Arg(Me)]F-NH2 [Compound No. 241: des(1)-[D-Tyr2,Thr3,AzaGly7,Arg(Me)9]MS10] | 1 specific activity to metastin (1-54)
26 | [dN]WNSFGL[Arg(Me)]F-NH2 [Compound No. 216: des(1)-[D-Asn2,Arg(Me)9]MS10] | 1 specific activity to metastin (1-54)
27 | [dY]INSFGL[Arg(Me)]F-NH2 [Compound No. 228: des(1)-[D-Tyr2,Ile3,Arg(Me)9]MS10] | 5 specific activity to metastin (1-54)
28 | B1 | 10 specific activity to metastin (1-54)
29 | B2 | 1 specific activity to metastin (1-54)
30 | B3 | 1 specific activity to metastin (1-54)
31 | [dY]NWNSFGV[Arg(Me)]F-NH2 [Compound No. 213: [D-Tyr1,Val8,Arg(Me)9]MS10] | 2 specific activity to metastin (1-54)
32 | [dY]NWTSFGL[Arg(Me)]F-NH2 [Compound No. 208: [D-Tyr1,Thr4,Arg(Me)9]MS10] | 1 specific activity to metastin (1-54)
33 | B4 | 10 specific activity to metastin (1-54)
34 | B5 | 1 specific activity to metastin (1-54)
35 | B6 | 10 specific activity to metastin (1-54)
36 | B7 | 10 specific activity to metastin (1-54)
37 | B8 | 10 specific activity to metastin (1-54)
38 | B9 | 10 specific activity to metastin (1-54)
39 | B10 | 1 specific activity to metastin (1-54)
40 | B11 | 1 specific activity to metastin (1-54)
41 | B12 | 10 specific activity to metastin (1-54)
42 | [dY]WNSF[azaGly]L[Arg(Me)]F-NH2 [Compound No. 222: des(1)-[D-Tyr2,AzaGly7,Arg(Me)9]MS10] | 5 specific activity to metastin (1-54)
43 | B13 | 1 specific activity to metastin (1-54)
44 | [dY]NWNSF[azaGly]LR(Me)F-NH2 [Compound No. 232: [D-Tyr1,AzaGly7,Arg(Me)9]MS10] | 3 specific activity to metastin (1-54)
45 | [dY][dN]WNSF[azaGly]LR(Me)F-NH2 [Compound No. 237: [D-Tyr1,D-Asn2,AZaGly7,Arg(Me)9]MS10] | 3 specific activity to metastin (1-54)
46 | B14 | 2 specific activity to metastin (1-54)

Molecular target: T1, human OT7T175 (metastin receptor)
Assay: cell-based or functional assay
Remark: another data set of the same source

Row | Binder | intracellular Ca ion level-increasing activity (FLIPR)
47 | Fmoc-NSFGLRF-NH2 [Compound No. 53: des(1-3)-Fmoc-MS10] | 1 specific activity to metastin (1-54)
48 | [dY]NWNSFGLRF-NH2 [Compound No. 42: [D-Tyr1]MS10] | 30 specific activity to metastin (1-54)
49 | B15 | 1 specific activity to metastin (1-54)
50 | YN[dW]NSFGLRF-NH2 [Compound No. 40: [D-Trp3]MS10] | 30 specific activity to metastin (1-54)
51 | Fmoc-NWNSFGLRF-NH2 [Compound No. 55: des(1)-Fmoc-MS10] | 5 specific activity to metastin (1-54)
